Consider 1 substance from publication PMC9949253.

The target of the assay is BTN3A1 full intracellular domain (BFI) (human). Briefly: ITC; 300 μM BTN2A1 ID271 titrated into a mixture of 60 μM BTN3A1 BFI and 120 μM 4-M-HMBPP; nanoITC, independent fit (NanoAnalyze).

As for “BTN2A1 intracellular domain (ID271) (domain or fragment)”, the KD with 4-M-HMBPP worked out at 190 µM, the N with 4-M-HMBPP came to 0.08 and the dH with 4-M-HMBPP is -100 kJ/mol.
